Values joined by “and” are separate entries in the source; they are usually repeats but may differ in a detail not shown here. Equal values may be shown once.

Usually IC50 stands for the concentration that gives 50% inhibition. Low values mean inhibition by little substance, high ones a need for much substance.

The experiment deals with MDM2 (In-house, 41 kD) (UniProt Q00987). Put plainly: competitive fluorescence polarization, MDM2 with FAM-labeled linear peptide; graded scale of paragraph 458. (In fluorescence polarisation assays a small probe gives low polarisation when free and higher when bound to something large.)
Chain of MDM2 (In-house, 41 kD) (Q00987 1-138 limits assumed): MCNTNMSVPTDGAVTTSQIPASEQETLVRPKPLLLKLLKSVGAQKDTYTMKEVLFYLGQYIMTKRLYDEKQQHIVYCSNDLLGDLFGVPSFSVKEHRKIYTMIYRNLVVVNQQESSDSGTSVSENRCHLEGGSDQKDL
In the case of “peptidomimetic macrocycle SP752, Ac-t$r5wya$r5f4CF3ekllr-NH2 (peptide)”, the IC50 was > 100 nM and < 1000 nM.

“peptidomimetic macrocycle SP753, Ac-tawy$r5nf4CF3e$r5llr-NH2 (peptide)”: the IC50 is > 10 nM and < 100 nM. In the case of “peptidomimetic macrocycle SP754, Ac-tawya$r5f4CF3ek$r5lr-NH2 (peptide)” it was > 100 nM and < 1000 nM; in that of “peptidomimetic macrocycle SP755, Ac-tawyanf4CF3e$r5llr$r5a-NH2 (peptide)”, below 10 nM; in that of “peptidomimetic macrocycle SP756, Ac-t$s8wyanf4CF3e$r5llr-NH2 (peptide)”, > 10 nM and < 100 nM. As to “peptidomimetic macrocycle SP757, Ac-tawy$s8nf4CF3ekll$r5a-NH2 (peptide)”, the IC50 is below 10 nM. Regarding “peptidomimetic macrocycle SP758, Ac-tawya$s8f4CF3ekllr$r5a-NH2 (peptide)”, the IC50 was > 10 nM and < 100 nM.
